{"source": "patent US20200010567A1", "about": "(NEURIMMUNE, published 2020)", "key": {"(GP)15: H-C(GP)15-OH": {"target": "T1, (GP)15: H-C(GP)15-OH", "T1 construct": "synthetic, not coupled to BSA; also called poly-GP DPR protein peptide", "T1 peptide": "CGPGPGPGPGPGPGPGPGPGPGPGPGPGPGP", "assay": "indirect ELISA, coated peptide", "method": "(§1) In brief, dipeptide repeat proteins were synthesized and purified by Schafer-N(Copenhagen, Denmark): (GA)₁₅: H-CHHHHHH(GA)₁₅-OH; (GP)₁₅: H-C(GP)₁₅-OH; (GR)₁₅: H-C(GR)₁₅-OH; (PA)₁₅: H-C(PA)₁₅-OH; (PR)₁₅: H—C(PR)₁₅-OH. 96-well microplates (Corning Incorporated, Corning, USA) were coated with dipeptide repeat protein peptides at a concentration of either 5 μg/ml or 20 μg/ml in coating buffer (15 mM Na₂CO₃, 35 mM NaHCO₃, pH 9.42). Non-specific binding sites were blocked for 1 h at room temperature with PBS/0.1% Tween®-20 containing 2% BSA (Sigma-Aldrich, Buchs, Switzerland). Primary antibodies were diluted to the indicated concentrations and incubated for 1 h at room temperature, followed by incubation with a donkey anti-human IgG Fcγ-specific antibody conjugated with HRP (Jackson ImmunoResearch Laboratories, Inc., West Grove, USA). Binding was determined by measurement of HRP activity in a standard colorimetric assay. EC₅₀ values were estimated by non-linear regression using GraphPad Prism software (San Diego, USA). The binding specificity and EC₅₀ of human-derived antibodies for C9orf72 dipeptide repeat protein peptides (GA)₁₅, (GP)₁₅, (GR)₁₅, (PA)₁₅ and (PR)₁₅ were determined by indirect ELISA."}, "(GR)15: H-C(GR)15-OH": {"target": "T2, (GR)15: H-C(GR)15-OH", "T2 construct": "synthetic, not coupled to BSA; also called poly-GR DPR protein peptide", "T2 peptide": "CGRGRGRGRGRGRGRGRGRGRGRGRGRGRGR", "assay": "indirect ELISA, coated peptide", "method": "as §1"}, "(PA)15: H-C(PA)15-OH": {"target": "T3, (PA)15: H-C(PA)15-OH", "T3 construct": "synthetic, not coupled to BSA; also called poly-PA DPR protein peptide", "T3 peptide": "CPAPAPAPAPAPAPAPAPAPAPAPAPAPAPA", "assay": "indirect ELISA, coated peptide", "method": "as §1"}, "(PR)15: H-C(PR)15-OH": {"target": "T4, (PR)15: H-C(PR)15-OH", "T4 construct": "synthetic, not coupled to BSA; also called poly-PR DPR protein peptide", "T4 peptide": "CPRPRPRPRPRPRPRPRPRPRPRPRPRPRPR", "assay": "indirect ELISA, coated peptide", "method": "as §1"}, "Tau": {"target": "Tau (UniProt P10636-8 1-441, limits assumed)", "sequence (P10636 other isoform, or with tags, fused parts or gaps limits assumed)": "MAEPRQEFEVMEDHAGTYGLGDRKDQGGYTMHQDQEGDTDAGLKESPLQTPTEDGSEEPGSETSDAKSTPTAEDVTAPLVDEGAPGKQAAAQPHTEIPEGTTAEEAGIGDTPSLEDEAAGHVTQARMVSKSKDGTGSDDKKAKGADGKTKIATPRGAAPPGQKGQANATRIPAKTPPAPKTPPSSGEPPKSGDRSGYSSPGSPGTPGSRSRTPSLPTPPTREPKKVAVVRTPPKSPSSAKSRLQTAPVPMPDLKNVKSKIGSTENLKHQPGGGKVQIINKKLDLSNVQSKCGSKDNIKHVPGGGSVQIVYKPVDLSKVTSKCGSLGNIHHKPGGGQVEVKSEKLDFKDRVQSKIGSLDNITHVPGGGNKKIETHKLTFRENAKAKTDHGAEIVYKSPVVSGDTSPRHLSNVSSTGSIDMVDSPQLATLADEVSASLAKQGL", "assay": "indirect ELISA, coated protein", "method": "(§2) 96-well microplates (Corning) were coated with different target proteins at a concentration of 1-10 μg/ml in coating buffer (15 mM Na₂CO₃, 35 mM NaHCO₃, pH 9.42). Non-specific binding sites were blocked for 1 h at RT with PBS/0.1% Tween®-20 containing 2% BSA (Sigma-Aldrich, Buchs, Switzerland). […] Binding was determined using donkey anti-human IgG Fcγ-specific antibody conjugated with HRP (Jackson ImmunoResearch Laboratories, Inc., West Grove, USA) followed by measurement of HRP activity in a standard colorimetric assay. Signals for target protein were calculated in fold increase above median."}, "[1]": {"target": "T5, transactive response DNA binding protein 43 (UniProt Q13148 1-414, limits assumed)", "T5 construct": "also called TDP-43", "T5 sequence (Q13148 whole entry)": "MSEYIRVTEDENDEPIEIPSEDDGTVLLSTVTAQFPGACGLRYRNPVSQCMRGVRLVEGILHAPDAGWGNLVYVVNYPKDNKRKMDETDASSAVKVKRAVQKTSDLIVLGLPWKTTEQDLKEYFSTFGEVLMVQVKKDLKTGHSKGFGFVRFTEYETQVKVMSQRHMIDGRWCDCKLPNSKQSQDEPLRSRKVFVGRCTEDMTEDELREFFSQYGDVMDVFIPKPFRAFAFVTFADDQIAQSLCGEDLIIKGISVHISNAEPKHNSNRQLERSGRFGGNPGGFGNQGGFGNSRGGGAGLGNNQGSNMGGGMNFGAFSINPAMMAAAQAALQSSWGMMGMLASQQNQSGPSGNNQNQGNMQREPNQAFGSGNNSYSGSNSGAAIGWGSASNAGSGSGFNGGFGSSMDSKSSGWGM", "assay": "indirect ELISA, coated protein", "method": "as §2"}, "transthyrethin": {"target": "transthyrethin (UniProt P02766 21-147)", "assay": "indirect ELISA, coated protein", "method": "as §2"}, "[2]": {"target": "T6, full-length amyloid precursor protein (UniProt P05067 18-770, limits assumed)", "T6 construct": "also called flAPP", "T6 sequence (P05067 18-770 limits assumed)": "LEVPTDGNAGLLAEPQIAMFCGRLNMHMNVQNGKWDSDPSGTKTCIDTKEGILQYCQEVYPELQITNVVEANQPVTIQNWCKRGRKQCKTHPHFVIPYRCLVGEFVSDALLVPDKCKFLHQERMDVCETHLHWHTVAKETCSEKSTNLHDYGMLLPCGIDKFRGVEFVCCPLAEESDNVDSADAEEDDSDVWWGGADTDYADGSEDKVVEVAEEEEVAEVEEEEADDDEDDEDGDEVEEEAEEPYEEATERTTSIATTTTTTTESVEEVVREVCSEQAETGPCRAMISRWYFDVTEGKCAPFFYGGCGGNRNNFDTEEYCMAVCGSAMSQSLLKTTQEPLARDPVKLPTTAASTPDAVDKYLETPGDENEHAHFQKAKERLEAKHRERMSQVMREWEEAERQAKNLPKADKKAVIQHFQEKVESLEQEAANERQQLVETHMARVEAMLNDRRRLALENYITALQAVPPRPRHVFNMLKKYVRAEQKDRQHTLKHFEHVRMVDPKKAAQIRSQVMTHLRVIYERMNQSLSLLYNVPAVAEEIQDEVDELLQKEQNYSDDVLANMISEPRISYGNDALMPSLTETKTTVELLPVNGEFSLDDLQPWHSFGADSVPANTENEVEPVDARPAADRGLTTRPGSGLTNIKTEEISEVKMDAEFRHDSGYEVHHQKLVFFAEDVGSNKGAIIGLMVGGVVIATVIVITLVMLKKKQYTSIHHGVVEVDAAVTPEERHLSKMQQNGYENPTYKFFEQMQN", "assay": "indirect ELISA, coated protein", "method": "as §2"}, "GA20: H-(GA)20HHHHHH-NH2": {"target": "T7, GA20: H-(GA)20HHHHHH-NH2 (C-terminal amide)", "T7 peptide": "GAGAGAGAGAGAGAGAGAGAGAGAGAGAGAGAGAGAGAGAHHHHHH", "assay": "indirect ELISA, coated His-tagged peptide", "from_the_text": "In brief, dipeptide repeat proteins were synthesized and purified by Schafer-N (Copenhagen, Denmark): GA₂₀: H-(GA)₂₀HHHHHH-NH₂; GA₁₀: H-(GA)₁₀HHHHHH-NH₂; GA₆: H-(GA)₆HHHHHH-NH₂; GA₅: H-(GA)₅HHHHHH-NH₂; GA₄: H-(GA)₄HHHHHH-NH₂; GA₃: H-(GA)₃HHHHHH-NH₂; GA₂: H-(GA)₂HHHHHH-NH₂; GP₂₀: H-(GP)₂₀HHHHHH-NH₂; GP₁₀: H-(GP)₁₀HHHHHH-NH₂; GP₆: H-(GP)₆HHHHHH-NH₂; GP₅: H-(GP)₅HHHHHH-NH₂; GP₄: H-(GP)₄HHHHHH-NH₂; GP₃: H-(GP)₃HHHHHH-NH₂; GP₂: H-(GP)₂HHHHHH-NH₂. GR₂₀: H-(GR)₂₀HHHHHH-NH₂; GR₁₀: H-(GR)₁₀HHHHHH-NH₂; GR₆: H-(GR)₆HHHHHH-NH₂; GR₅: H-(GR)₅HHHHHH-NH₂; GR₄: H-(GR)₄HHHHHH-NH₂; GR₃: H-(GR)₃HHHHHH-NH₂; GR₂: H-(GR)₂HHHHHH-NH₂; PA₂₀: H-(PA)₂₀HHHHHH-NH₂; PA₁₀: H-(PA)₁₀HHHHHH-NH₂; PA₆: H-(PA)₆HHHHHH-NH₂; PA₅: H-(PA)₅HHHHHH-NH₂; PA₄: H-(PA)₄HHHHHH-NH₂; PA₃: H-(PA)₃HHHHHH-NH₂; PA₂: H-(PA)₂HHHHHH-NH₂; PR₂₀: H-(PR)₂₀HHHHHH-NH₂; PR₁₀: H-(PR)₁₀HHHHHH-NH₂; PR₆: H-(PR)₆HHHHHH-NH₂; PR₅: H-(PR)₅HHHHHH-NH₂; PR₄: H-(PR)₄HHHHHH-NH₂; PR₃: H-(PR)₃HHHHHH-NH₂; PR₂: H-(PR)₂HHHHHH-NH₂. 96-well microplates (Corning Incorporated, Corning, USA) were coated with dipeptide repeat protein peptides at a concentration of 50 μg/ml in coating buffer (15 mM Na₂CO₃, 35 mM NaHCO₃, pH 9.42). Non-specific binding sites were blocked for 1 h at room temperature with PBS/0.1% Tween®-20 containing 2% BSA (Sigma-Aldrich, Buchs, Switzerland). Primary antibodies were diluted to the indicated concentrations and incubated 1 h at room temperature, followed by incubation with a donkey anti-human IgG Fcγ-specific antibody conjugated with HRP (Jackson ImmunoResearch Laboratories, Inc., West Grove, USA). Binding was determined by measurement of HRP activity in a standard colorimetric assay. EC₅₀ values were estimated by non-linear regression using GraphPad Prism software (San Diego, USA)."}}}
{"binder": "NI-308.18F7 (antibody, V domains shown, Recombinant complete human IgG1, kappa) VH: QVQLQESGPGLVKPSETLSVTCTVSGGSINDYYWNWIRQPAGKGLEWIGRIYASGTINYNPSLQSRVTMSIDTSKNQFSLDLISVSAADTAVYYCARWGQVVGDYYYGMDVWGQGTTVTVSS VL: EIVLTQSPLSLSVTPGEPASISCKSSQSLQHTNGYNYLDWYLLKPGQSPQLLIFLTSNRASGVPDRFSGSGSGTNFTLKISRVEAEDVGVYYCMEGIQLWTFGQGTKLEIK", "values": [{"measurement": "binding result", "setting": "(GP)15: H-C(GP)15-OH", "result": "no binding"}, {"measurement": "binding result", "setting": "(GR)15: H-C(GR)15-OH", "result": "no binding"}, {"measurement": "binding result", "setting": "(PA)15: H-C(PA)15-OH", "result": "no binding"}, {"measurement": "binding result", "setting": "(PR)15: H-C(PR)15-OH", "result": "no binding"}, {"measurement": "binding result", "setting": "Tau", "result": "no binding (tested: 20 nM)"}, {"measurement": "binding result", "setting": "[1]", "result": "no binding (tested: 20 nM)"}, {"measurement": "binding result", "setting": "transthyrethin", "result": "no binding (tested: 20 nM)"}, {"measurement": "binding result", "setting": "[2]", "result": "no binding (tested: 20 nM)"}, {"measurement": "EC50", "setting": "GA20: H-(GA)20HHHHHH-NH2", "result": 0.83, "unit": "nM"}]}
